Source: US20140143908A1
Numbering of substitutions follows the chain as printed. Numbers in names are those of the source. One block for each binder: values may come before it.

Tests used:
[1] = target: Oryza sativa trehalose-6-phosphate phosphatase, wild type (OsT6PP-WT) (Oryza sativa) (UniProt Q75WV3); assay: cell-based or functional assay
[2] = target: T1, N-terminal truncated OsT6PP-D56NT
T1 chain: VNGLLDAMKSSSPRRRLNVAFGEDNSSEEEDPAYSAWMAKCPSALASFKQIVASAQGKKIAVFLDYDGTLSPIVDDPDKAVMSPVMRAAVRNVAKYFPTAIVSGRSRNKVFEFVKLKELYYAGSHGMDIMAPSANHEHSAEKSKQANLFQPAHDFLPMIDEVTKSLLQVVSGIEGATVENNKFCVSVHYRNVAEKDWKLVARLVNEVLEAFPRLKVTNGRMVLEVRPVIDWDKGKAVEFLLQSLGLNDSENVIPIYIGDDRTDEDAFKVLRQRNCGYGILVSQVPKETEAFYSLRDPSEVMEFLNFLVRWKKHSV

[3] = target: T2, Oryza sativa trehalose-6-phosphate phosphatase, wild type (OsT6PP-WT)
T2 chain: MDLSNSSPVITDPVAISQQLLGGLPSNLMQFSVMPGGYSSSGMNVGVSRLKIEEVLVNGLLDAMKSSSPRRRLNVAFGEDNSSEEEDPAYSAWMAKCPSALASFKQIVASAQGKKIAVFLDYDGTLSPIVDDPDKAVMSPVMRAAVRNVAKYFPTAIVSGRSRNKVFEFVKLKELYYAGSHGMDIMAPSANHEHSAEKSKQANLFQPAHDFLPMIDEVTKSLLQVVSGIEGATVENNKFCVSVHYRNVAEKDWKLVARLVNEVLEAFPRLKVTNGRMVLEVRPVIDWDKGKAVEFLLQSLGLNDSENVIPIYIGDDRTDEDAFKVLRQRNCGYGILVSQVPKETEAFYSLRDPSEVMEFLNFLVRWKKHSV

Trehalose formed (µM), 20 min, mixture of OsT6PP-WT (1 µg/ml) and OsT6PP-H244D (10 µg/ml); WT alone 25.3, H244D alone 1.1 [1]: 89.5 µM | Trehalose formed (µM), 40 min, mixture of OsT6PP-WT (1 µg/ml) and OsT6PP-H244D (10 µg/ml); WT alone 33.6, H244D alone 4.6 [1]: 155 µM | Trehalose formed (µM), 60 min, mixture of OsT6PP-WT (1 µg/ml) and OsT6PP-H244D (10 µg/ml); WT alone 36.8, H244D alone 5.9 [1]: 220 µM
B1: Oryza sativa trehalose-6-phosphate phosphatase single modification H244D (OsT6PP-H244D) (protein)
chain: T2 chain with H244D
fold increase of T6PP activity [2]: a 1.7 fold increase in T6PP activity was observed when N-terminal truncated OsT6PP-D56NT was mixed with OsT6PP-H244D | T6PP activity, trehalose formed (µM), 20 min, OsT6PP-WT (1 µg/ml) with 0.5 µg/mL OsT6PP-H244D; WT alone 28.7 [3]: 34.9 µM | T6PP activity, trehalose formed (µM), 20 min, OsT6PP-WT (1 µg/ml) with 1 µg/mL OsT6PP-H244D; WT alone 28.7 [3]: 40.1 µM | T6PP activity, trehalose formed (µM), 20 min, OsT6PP-WT (1 µg/ml) with 2 µg/mL OsT6PP-H244D; WT alone 28.7 [3]: 52.3 µM | T6PP activity, trehalose formed (µM), 20 min, OsT6PP-WT (1 µg/ml) with 5 µg/mL OsT6PP-H244D; WT alone 28.7 [3]: 71.7 µM | T6PP activity, trehalose formed (µM), 20 min, OsT6PP-WT (1 µg/ml) with 10 µg/mL OsT6PP-H244D; WT alone 28.7, H244D alone 2.2 [3]: 77.7 µM | T6PP activity, trehalose formed (µM), 20 min, OsT6PP-WT (1 µg/ml) with 20 µg/mL OsT6PP-H244D; WT alone 28.7, H244D alone 6.2 [3]: 101 µM | fold increase of T6PP activity [3]: An approximately 3-fold increased T6PP activity was observed when OsT6PP-WT was assayed in presence of OsT6PP-H244D | trehalose 6-phosphate phosphatase activity (in vitro) [3]: Increased trehalose 6-phosphate phosphatase activity (in vitro) of OsT6PP-WT is observed in the presence of its catalytically inefficient variants, including OsT6PP-H244D, OsT6PP-H244S and OsT6PP-S242E

B2: OsT6PP-S242E (protein)
chain: T2 chain with S242E
trehalose 6-phosphate phosphatase activity (in vitro) [3]: Increased trehalose 6-phosphate phosphatase activity (in vitro) of OsT6PP-WT is observed in the presence of its catalytically inefficient variants, including OsT6PP-H244D, OsT6PP-H244S and OsT6PP-S242E

B3: OsT6PP-H244S (protein)
chain: T2 chain with H244S
trehalose 6-phosphate phosphatase activity (in vitro) [3]: Increased trehalose 6-phosphate phosphatase activity (in vitro) of OsT6PP-WT is observed in the presence of its catalytically inefficient variants, including OsT6PP-H244D, OsT6PP-H244S and OsT6PP-S242E
